Data: US20250263459A1, “STABILIZED PACAP PEPTIDE” (SENJU PHARMACEUTICAL CO., LTD., priority 2019, published 2025)
Non-standard residues stand in square brackets, D forms with d. No end group written: not given here. Ala(1H-tetrazol-5-yl) = N[C@@H](Cc1nnn[nH]1)C(=O)O; Tz = tetrazole-substituted aspartic acid; Aib = CC(C)(N)C(=O)O

Legend:
VPAC1 receptor = target: T1, VPAC1 receptor (UniProt P32241 31-457, limits assumed); experiment: cell-based or functional assay
T1 sequence (looked up): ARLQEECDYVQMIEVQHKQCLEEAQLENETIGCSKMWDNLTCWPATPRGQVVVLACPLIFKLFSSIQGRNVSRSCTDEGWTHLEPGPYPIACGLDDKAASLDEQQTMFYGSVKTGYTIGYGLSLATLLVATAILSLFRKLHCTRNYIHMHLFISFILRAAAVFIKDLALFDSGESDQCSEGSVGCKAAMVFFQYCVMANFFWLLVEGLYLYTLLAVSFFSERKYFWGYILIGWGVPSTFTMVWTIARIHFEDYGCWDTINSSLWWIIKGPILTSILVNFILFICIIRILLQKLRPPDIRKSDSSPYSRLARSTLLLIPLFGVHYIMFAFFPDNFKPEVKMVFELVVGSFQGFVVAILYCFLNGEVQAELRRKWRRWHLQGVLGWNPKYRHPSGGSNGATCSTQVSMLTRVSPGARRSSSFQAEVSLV

PAC1 receptor = target: T2, PAC1 receptor (UniProt P41586 21-468, limits assumed); experiment: cell-based or functional assay
T2 sequence (looked up): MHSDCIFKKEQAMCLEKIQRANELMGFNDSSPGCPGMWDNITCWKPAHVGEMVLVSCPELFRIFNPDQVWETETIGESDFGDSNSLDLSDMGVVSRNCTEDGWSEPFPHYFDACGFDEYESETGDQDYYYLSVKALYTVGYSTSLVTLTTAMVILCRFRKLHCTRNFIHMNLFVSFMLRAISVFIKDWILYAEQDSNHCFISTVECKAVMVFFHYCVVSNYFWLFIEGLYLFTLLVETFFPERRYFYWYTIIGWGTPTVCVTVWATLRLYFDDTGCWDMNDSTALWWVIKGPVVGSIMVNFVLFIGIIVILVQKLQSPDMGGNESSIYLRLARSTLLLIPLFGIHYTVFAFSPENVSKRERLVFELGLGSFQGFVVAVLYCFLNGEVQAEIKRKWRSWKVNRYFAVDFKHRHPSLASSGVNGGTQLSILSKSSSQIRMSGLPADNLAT

Binder: HS[Tz]GIFA[Tz]SY[Aib]RYRKQMAVKKYLAAVL-NH2 (also: Tz racemic) [Peptide 5]
- EC50, cAMP assay (Hit Hunter cAMP, chemiluminescence RLU) (VPAC1 receptor): 78 pM
- EC50, cAMP assay (Hit Hunter cAMP, chemiluminescence RLU) (PAC1 receptor): 695 pM

B1: Peptide 12 (peptide)
peptide: MHSXGIFTXSYSRYRKQLAVKKYLAAVL
modifications: tetrazole-substituted aspartic acid (Tz) at positions 4 and 9 of this 28-residue peptide (positions 3 and 8 of PACAP27); C-terminal amide (NH2)
- EC50, cAMP assay (Hit Hunter cAMP, chemiluminescence RLU) (VPAC1 receptor): 651 pM
- EC50, cAMP assay (Hit Hunter cAMP, chemiluminescence RLU) (PAC1 receptor): 4280 pM

Binder: HS[Tz]GIFT[Tz]SYSRYRKQMAVKKYLA-NH2 (also: Tz racemic) [Peptide 8]
- EC50, cAMP assay (Hit Hunter cAMP, chemiluminescence RLU) (VPAC1 receptor): 45 pM
- EC50, cAMP assay (Hit Hunter cAMP, chemiluminescence RLU) (PAC1 receptor): 679 pM

Binder: HS[Tz]GIFA[Tz]AYARYRKQMAVKKYLAAVL-NH2 (also: Tz racemic) [Peptide 3]
- EC50, cAMP assay (Hit Hunter cAMP, chemiluminescence RLU) (VPAC1 receptor): 111 pM
- EC50, cAMP assay (Hit Hunter cAMP, chemiluminescence RLU) (PAC1 receptor): 689 pM

B2: Peptide 28 (peptide)
peptide: HSXGIFAXSYSRYRKALAVKKYLAAVL
modifications: N-terminal Ac; tetrazole-substituted aspartic acid (Tz) at positions 3 and 8; C-terminal amide (NH2)
- EC50, cAMP assay (Hit Hunter cAMP, chemiluminescence RLU) (VPAC1 receptor): 72 pM
- EC50, cAMP assay (Hit Hunter cAMP, chemiluminescence RLU) (PAC1 receptor): 2120 pM

B3: Peptide 23 (peptide)
peptide: HSXGAFTXSYSRYRKQLAVKKYLAAVL
modifications: N-terminal Ac; tetrazole-substituted aspartic acid (Tz) at positions 3 and 8; C-terminal amide (NH2)
- EC50, cAMP assay (Hit Hunter cAMP, chemiluminescence RLU) (VPAC1 receptor): 47 pM
- EC50, cAMP assay (Hit Hunter cAMP, chemiluminescence RLU) (PAC1 receptor): 1150 pM

Binder: HS[Ala(1H-tetrazol-5-yl)]GIFA[Ala(1H-tetrazol-5-yl)]AYSRYRKQMAVKKYLAAVL-NH2 (also: Tz racemic at 3 and 8) [Peptide 1]
- EC50, cAMP assay (Hit Hunter cAMP, chemiluminescence RLU) (VPAC1 receptor): 97 pM
- EC50, cAMP assay (Hit Hunter cAMP, chemiluminescence RLU) (PAC1 receptor): 1220 pM

B4: Peptide 9 (peptide)
peptide: HSXGIFTXSYSRYRKQMAVKKYLAAV
modifications: tetrazole-substituted aspartic acid (Tz, racemic) at positions 3 and 8; C-terminal amide (NH2)
- EC50, cAMP assay (Hit Hunter cAMP, chemiluminescence RLU) (VPAC1 receptor): 79 pM
- EC50, cAMP assay (Hit Hunter cAMP, chemiluminescence RLU) (PAC1 receptor): 287 pM

B5: Peptide 17 (peptide)
peptide: HSXGIFTXSYSRYRKQXAVKKYLAAVL
modifications: N-terminal CH3CH2CO; tetrazole-substituted aspartic acid (Tz) at positions 3 and 8; norleucine (Nl) at position 17; C-terminal amide (NH2)
- EC50, cAMP assay (Hit Hunter cAMP, chemiluminescence RLU) (VPAC1 receptor): 71 pM
- EC50, cAMP assay (Hit Hunter cAMP, chemiluminescence RLU) (PAC1 receptor): 398 pM

B6: Peptide 22 (peptide)
peptide: HSXGIFTXSYSRYRKQXAVKKYLAAVL
modifications: N-terminal Ac (CH3CO); oxadiazolone-substituted aspartic acid (5Oxa) at positions 3 and 8; norleucine (Nl) at position 17; C-terminal amide (NH2)
- EC50, cAMP assay (Hit Hunter cAMP, chemiluminescence RLU) (VPAC1 receptor): 77 pM
- EC50, cAMP assay (Hit Hunter cAMP, chemiluminescence RLU) (PAC1 receptor): 376 pM

B7: Peptide 13 (peptide)
peptide: HSXGIFTXSYSRYRKQXAVKKYLAAVL
modifications: D-form tetrazole-substituted aspartic acid (Tz(D)) at positions 3 and 8; norleucine (Nl) at position 17; C-terminal amide (NH2)
- EC50, cAMP assay (Hit Hunter cAMP, chemiluminescence RLU) (VPAC1 receptor): 82 pM
- EC50, cAMP assay (Hit Hunter cAMP, chemiluminescence RLU) (PAC1 receptor): 738 pM

B8: Peptide 20 (peptide)
peptide: HSXGIFTXSYSRYRKQXAVKKYLAAVL
modifications: not fully specified; N-terminal CH3CH2CH2CH2CO; tetrazole-substituted aspartic acid (Tz) at positions 3 and 8; norleucine (Nl) at position 17; C-terminal amide (NH2)
- EC50, cAMP assay (Hit Hunter cAMP, chemiluminescence RLU) (VPAC1 receptor): 131 pM
- EC50, cAMP assay (Hit Hunter cAMP, chemiluminescence RLU) (PAC1 receptor): 574 pM

B9: Peptide 21 (peptide)
peptide: HSXGIFTXSYSRYRKQXAVKKYLAAVL
modifications: N-terminal (CH3)2CHCH2CO; tetrazole-substituted aspartic acid (Tz) at positions 3 and 8; norleucine (Nl) at position 17; C-terminal amide (NH2)
- EC50, cAMP assay (Hit Hunter cAMP, chemiluminescence RLU) (VPAC1 receptor): 141 pM
- EC50, cAMP assay (Hit Hunter cAMP, chemiluminescence RLU) (PAC1 receptor): 1130 pM

Binder: HS[Tz]GIFA[Tz][Aib]Y[Aib]RYRKQMAVKKYLAAVL-NH2 (also: Tz racemic) [Peptide 6]
- EC50, cAMP assay (Hit Hunter cAMP, chemiluminescence RLU) (VPAC1 receptor): 110 pM
- EC50, cAMP assay (Hit Hunter cAMP, chemiluminescence RLU) (PAC1 receptor): 1170 pM

B10: Peptide 29 (peptide)
peptide: HSXGIFAXSYSRYRKQAAVKKYLAAVL
modifications: N-terminal Ac; tetrazole-substituted aspartic acid (Tz) at positions 3 and 8; C-terminal amide (NH2)
- EC50, cAMP assay (Hit Hunter cAMP, chemiluminescence RLU) (VPAC1 receptor): 123 pM
- EC50, cAMP assay (Hit Hunter cAMP, chemiluminescence RLU) (PAC1 receptor): 3280 pM

Binder: HS[Tz]GIFA[Tz]SYARYRKQMAVKKYLAAVL-NH2 (also: Tz racemic) [Peptide 2]
- EC50, cAMP assay (Hit Hunter cAMP, chemiluminescence RLU) (VPAC1 receptor): 85 pM
- EC50, cAMP assay (Hit Hunter cAMP, chemiluminescence RLU) (PAC1 receptor): 610 pM

Binder: Ac-HA[Tz]GIFT[Tz]SYSRYRKALAVKKYLAAVL-NH2 [Peptide 26]
- EC50, cAMP assay (Hit Hunter cAMP, chemiluminescence RLU) (VPAC1 receptor): 68 pM
- EC50, cAMP assay (Hit Hunter cAMP, chemiluminescence RLU) (PAC1 receptor): 209 pM

B11: Peptide 14 (peptide)
peptide: HSXGIFTXSYSRYRKQXAVKKYLAAVL
modifications: tetrazole-substituted aspartic acid (Tz) at position 3; D-form tetrazole-substituted aspartic acid (Tz(D)) at position 8; norleucine (Nl) at position 17; C-terminal amide (NH2)
- EC50, cAMP assay (Hit Hunter cAMP, chemiluminescence RLU) (VPAC1 receptor): 107 pM
- EC50, cAMP assay (Hit Hunter cAMP, chemiluminescence RLU) (PAC1 receptor): 857 pM

Binder: HS[Tz]GIFA[Tz][Aib]YSRYRKQMAVKKYLAAVL-NH2 (also: Tz racemic) [Peptide 4]
- EC50, cAMP assay (Hit Hunter cAMP, chemiluminescence RLU) (VPAC1 receptor): 121 pM
- EC50, cAMP assay (Hit Hunter cAMP, chemiluminescence RLU) (PAC1 receptor): 2360 pM

B12: Peptide 15 (peptide)
peptide: HSXGIFTXSYSRYRKQXAVKKYLAAVL
modifications: D-form tetrazole-substituted aspartic acid (Tz(D)) at position 3; tetrazole-substituted aspartic acid (Tz) at position 8; norleucine (Nl) at position 17; C-terminal amide (NH2)
- EC50, cAMP assay (Hit Hunter cAMP, chemiluminescence RLU) (VPAC1 receptor): 243 pM
- EC50, cAMP assay (Hit Hunter cAMP, chemiluminescence RLU) (PAC1 receptor): 79 pM

B13: Peptide 11 (peptide)
peptide: HSXGIFTXSYSRYRKQXAVKKYLAAVL
modifications: sulfoxy-substituted aspartic acid (cya) at positions 3 and 8; norleucine (Nl) at position 17; C-terminal amide (NH2)
- EC50, cAMP assay (Hit Hunter cAMP, chemiluminescence RLU) (VPAC1 receptor): 80 pM
- EC50, cAMP assay (Hit Hunter cAMP, chemiluminescence RLU) (PAC1 receptor): 911 pM

B14: Peptide 25 (peptide)
peptide: HAXGIFAXSYSRYRKQLAVKKYLAAVL
modifications: N-terminal Ac; tetrazole-substituted aspartic acid (Tz) at positions 3 and 8; C-terminal amide (NH2)
- EC50, cAMP assay (Hit Hunter cAMP, chemiluminescence RLU) (VPAC1 receptor): 41 pM
- EC50, cAMP assay (Hit Hunter cAMP, chemiluminescence RLU) (PAC1 receptor): 693 pM

B15: Peptide 18 (peptide)
peptide: HSXGIFTXSYSRYRKQXAVKKYLAAVL
modifications: N-terminal CH3CH2CH2CO; tetrazole-substituted aspartic acid (Tz) at positions 3 and 8; norleucine (Nl) at position 17; C-terminal amide (NH2)
- EC50, cAMP assay (Hit Hunter cAMP, chemiluminescence RLU) (VPAC1 receptor): 69 pM
- EC50, cAMP assay (Hit Hunter cAMP, chemiluminescence RLU) (PAC1 receptor): 189 pM

B16: Peptide 24 (peptide)
peptide: HSXGIFAXSYSRYRKQLAVKKYLAAVL
modifications: N-terminal Ac; tetrazole-substituted aspartic acid (Tz) at positions 3 and 8; C-terminal amide (NH2)
- EC50, cAMP assay (Hit Hunter cAMP, chemiluminescence RLU) (VPAC1 receptor): 42 pM
- EC50, cAMP assay (Hit Hunter cAMP, chemiluminescence RLU) (PAC1 receptor): 1260 pM

B17: Peptide 19 (peptide)
peptide: HSXGIFTXSYSRYRKQXAVKKYLAAVL
modifications: N-terminal (CH3)2CHCO; tetrazole-substituted aspartic acid (Tz) at positions 3 and 8; norleucine (Nl) at position 17; C-terminal amide (NH2)
- EC50, cAMP assay (Hit Hunter cAMP, chemiluminescence RLU) (VPAC1 receptor): 69 pM
- EC50, cAMP assay (Hit Hunter cAMP, chemiluminescence RLU) (PAC1 receptor): 256 pM

Binder: Ac-HA[Tz]GIFA[Tz]AYSRYRKAAAVKKYLAAVL-NH2 [Peptide 30]
- EC50, cAMP assay (Hit Hunter cAMP, chemiluminescence RLU) (VPAC1 receptor): 113 pM
- EC50, cAMP assay (Hit Hunter cAMP, chemiluminescence RLU) (PAC1 receptor): 2290 pM

B18: Peptide 10 (peptide)
peptide: HSXGIFTXSYSRYRKQLAVKKYLAAVL
modifications: sulfoxy-substituted aspartic acid (cya) at positions 3 and 8; C-terminal amide (NH2)
- EC50, cAMP assay (Hit Hunter cAMP, chemiluminescence RLU) (VPAC1 receptor): 57 pM
- EC50, cAMP assay (Hit Hunter cAMP, chemiluminescence RLU) (PAC1 receptor): 447 pM

B19: Peptide 27 (peptide)
peptide: HSXGIFAXAYSRYRKQLAVKKYLAAVL
modifications: N-terminal Ac; tetrazole-substituted aspartic acid (Tz) at positions 3 and 8; C-terminal amide (NH2)
- EC50, cAMP assay (Hit Hunter cAMP, chemiluminescence RLU) (VPAC1 receptor): 111 pM
- EC50, cAMP assay (Hit Hunter cAMP, chemiluminescence RLU) (PAC1 receptor): 2530 pM

Binder: HS[Tz]GIFT[Tz][Aib]Y[Aib]RYRKQMAVKKYLAAVL-NH2 (also: Tz racemic) [Peptide 7]
- EC50, cAMP assay (Hit Hunter cAMP, chemiluminescence RLU) (VPAC1 receptor): 96 pM
- EC50, cAMP assay (Hit Hunter cAMP, chemiluminescence RLU) (PAC1 receptor): 319 pM

B20: Peptide 16 (peptide)
peptide: HSXGIFTXSYSRYRKQXAVKKYLAAVL
modifications: tetrazole-substituted aspartic acid (Tz) at position 3; tetrazole-substituted glutamic acid (egTz) at position 8; norleucine (Nl) at position 17; C-terminal amide (NH2)
- EC50, cAMP assay (Hit Hunter cAMP, chemiluminescence RLU) (VPAC1 receptor): 142 pM
- EC50, cAMP assay (Hit Hunter cAMP, chemiluminescence RLU) (PAC1 receptor): 1620 pM
